Measured values as given in US20200181263A1 (NUMAB THERAPEUTICS, published 2020).
Blank lines part the entries; values can stand above or below the binder they belong to.

How the values were obtained:
[1] = biological target: T1, human CD3 gamma-epsilon single-chain (human, UniProt P09693 23-103; P07766 23-118); test: SPR, target immobilised by amine coupling, binder as analyte
T1 construct: Recombinant protein immobilised on the SPR chip

human IL-23 receptor ECD = biological target: T2, human IL-23 receptor ECD (human, UniProt Q5VWK5 24-355); test: as above
T2 construct: extracellular domain
T2 sequence (looked up): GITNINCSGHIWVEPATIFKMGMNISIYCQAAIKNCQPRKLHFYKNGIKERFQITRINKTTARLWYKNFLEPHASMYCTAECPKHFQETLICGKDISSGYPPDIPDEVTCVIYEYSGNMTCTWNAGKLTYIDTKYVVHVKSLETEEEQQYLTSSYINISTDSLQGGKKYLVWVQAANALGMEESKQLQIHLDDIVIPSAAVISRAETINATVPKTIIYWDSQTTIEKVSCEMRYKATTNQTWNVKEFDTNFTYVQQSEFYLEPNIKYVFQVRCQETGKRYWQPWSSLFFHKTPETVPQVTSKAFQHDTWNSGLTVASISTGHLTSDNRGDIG

human serum albumin = biological target: T3, human serum albumin (human, UniProt P02768 25-609); test: as above
T3 construct: also called HSA

cyno CD3 = biological target: T4, cyno CD3 (cyno, UniProt Q95LI5 22-117); test: as above
T4 sequence (looked up): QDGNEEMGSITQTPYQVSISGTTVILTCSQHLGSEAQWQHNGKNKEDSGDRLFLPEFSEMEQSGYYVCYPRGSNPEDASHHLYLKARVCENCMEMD

[2] = biological target: T5, human IL23R IL12Rbeta 1 heterodimer on CHO-K1 cells (human, UniProt Q5VWK5 24-629; P42701 24-662); test: cell-based or functional assay
[3] = biological target: T5, human IL23R IL12Rbeta 1 heterodimer on …; test: cell-based or functional assay; remark: listed apart in the source

- Kd [1]: 11.9 nM
- Kd (human IL-23 receptor ECD): 0.036 nM
- Kd (human serum albumin): 0.482 nM
- Kd (cyno CD3): 10.2 nM
- NFAT assay EC50 (T-cell activation, 5 h) [2]: 46.8 nM
B1: PRO734 (other)
chain 1: DIQMTQSPSSLSASVGDRVTITCQASENIYSFLAWYQQKPGKAPKLLIYSASKLAAGVPSRFSGSGSGTDFTLTISSLQPEDFATYYCQQTNRYSNPDIYNVFGTGTKVTVLGGGGGSGGGGSGGGGSGGGGSEVQLVESGGGLVQPGGSLRLSCAASGIDFNSNYYMCWVRQAPGKGLEWIGCIYVGSHVNTYYANWAKGRFTISRDNSKNTVYLQMNSLRAEDTAVYYCATSGSSVLYFKFWGQGTLVTVSSGGGGSGGGGSDIQMTQSPSSLSASVGDRVTITCQSSQSVFSNNYLAWFQQKPGQSPKRLIYSASTLASGVPSRFSGSGSGTDFTLTISSLQPEDFATYYCLGSYACSSADCYVFGCGTKVTVLGSGGGGSGGGGSDIQMTQSPSSLSASVGDRVTITCQSSESVYSNNQLSWYQQKPGQPPKLLIYDASDLASGVPSRFSGSGSGTDFTLTISSLQPEDFATYYCAGGFSSSSDTAFGGGTKLTVLG
chain 2: DIQMTQSPSSLSASVGDRVTITCQASENIYSFLAWYQQKPGKAPKLLIYSASKLAAGVPSRFSGSGSGTDFTLTISSLQPEDFATYYCQQTNRYSNPDIYNVFGTGTKVTVLGGGGGSGGGGSGGGGSGGGGSEVQLVESGGGLVQPGGSLRLSCAASGIDFNSNYYMCWVRQAPGKGLEWIGCIYVGSHVNTYYANWAKGRFTISRDNSKNTVYLQMNSLRAEDTAVYYCATSGSSVLYFKFWGQGTLVTVSSGGGGSGGGGSEVQLVESGGGLVQPGGSLRLSCAASGFSLSSNAMGWVRQAPGKGLEYIGIISVGGFTYYASWAKGRFTISRDNSKNTVYLQMNSLRAEDTATYFCARDRHGGDSSGAFYLWGQGTLVTVSSSGGGGSGGGGSEVQLVESGGGLVQPGGSLRLSCAASGFSLSSYDMSWVRQAPGKCLAWIGASYASGPTYYASWAKGRFTISRDNSKNTVYLQMNSLRAEDTATYFCARGGWTGTSHSNIWGQGTLVTVSS
notes: Hetero-dimeric MATCH, anti-parallel; diS in anti-CD3 domain, 11 aa GS-linker

- Kd [1]: 10.1 nM
- Kd (human IL-23 receptor ECD): 0.0337 nM
- Kd (human serum albumin): 0.303 nM
- Kd (cyno CD3): 8.48 nM
- NFAT assay EC50 (T-cell activation, 5 h) [2]: 0.423 nM
B2: PRO738 (other)
chain 1: DIQMTQSPSSLSASVGDRVTITCQASENIYSFLAWYQQKPGKAPKLLIYSASKLAAGVPSRFSGSGSGTDFTLTISSLQPEDFATYYCQQTNRYSNPDIYNVFGTGTKVTVLGGGGGSGGGGSGGGGSGGGGSEVQLVESGGGLVQPGGSLRLSCAASGIDFNSNYYMCWVRQAPGKGLEWIGCIYVGSHVNTYYANWAKGRFTISRDNSKNTVYLQMNSLRAEDTAVYYCATSGSSVLYFKFWGQGTLVTVSSGGGGSGGGGSDIQMTQSPSSLSASVGDRVTITCQSSQSVFSNNYLAWFQQKPGQSPKRLIYSASTLASGVPSRFSGSGSGTDFTLTISSLQPEDFATYYCLGSYACSSADCYVFGCGTKVTVLGGGGGSGGGGSGGGGSDIQMTQSPSSLSASVGDRVTITCQSSESVYSNNQLSWYQQKPGQPPKLLIYDASDLASGVPSRFSGSGSGTDFTLTISSLQPEDFATYYCAGGFSSSSDTAFGGGTKLTVLG
chain 2: DIQMTQSPSSLSASVGDRVTITCQASENIYSFLAWYQQKPGKAPKLLIYSASKLAAGVPSRFSGSGSGTDFTLTISSLQPEDFATYYCQQTNRYSNPDIYNVFGTGTKVTVLGGGGGSGGGGSGGGGSGGGGSEVQLVESGGGLVQPGGSLRLSCAASGIDFNSNYYMCWVRQAPGKGLEWIGCIYVGSHVNTYYANWAKGRFTISRDNSKNTVYLQMNSLRAEDTAVYYCATSGSSVLYFKFWGQGTLVTVSSGGGGSGGGGSEVQLVESGGGLVQPGGSLRLSCAASGFSLSSNAMGWVRQAPGKGLEYIGIISVGGFTYYASWAKGRFTISRDNSKNTVYLQMNSLRAEDTATYFCARDRHGGDSSGAFYLWGQGTLVTVSSGGGGSGGGGSGGGGSEVQLVESGGGLVQPGGSLRLSCAASGFSLSSYDMSWVRQAPGKCLAWIGASYASGPTYYASWAKGRFTISRDNSKNTVYLQMNSLRAEDTATYFCARGGWTGTSHSNIWGQGTLVTVSS
notes: Hetero-dimeric MATCH, anti-parallel; diS in anti-CD3 domain, 15 aa GS-linker

- Kd [1]: 3.52 nM
- Kd (human IL-23 receptor ECD): 0.0249 nM
- Kd (human serum albumin): 0.141 nM
- Kd (cyno CD3): 3.19 nM
- EC50 of T-cell activation (NFAT reporter, with HSA), 5 h [3]: 266000 nM
- EC50 of T-cell activation (NFAT reporter, with HSA), 30 h [3]: 102000 nM
- NFAT assay EC50 (T-cell activation, 5 h) [2]: 0.19 nM
B3: PRO746 (MATCH) (other)
chain 1: DIQMTQSPSSLSASVGDRVTITCQASENIYSFLAWYQQKPGKAPKLLIYSASKLAAGVPSRFSGSGSGTDFTLTISSLQPEDFATYYCQQTNRYSNPDIYNVFGTGTKVTVLGGGGGSGGGGSGGGGSGGGGSEVQLVESGGGLVQPGGSLRLSCAASGIDFNSNYYMCWVRQAPGKGLEWIGCIYVGSHVNTYYANWAKGRFTISRDNSKNTVYLQMNSLRAEDTAVYYCATSGSSVLYFKFWGQGTLVTVSSGGGGSGGGGSDIQMTQSPSSLSASVGDRVTITCQSSQSVFSNNYLAWFQQKPGQSPKRLIYSASTLASGVPSRFSGSGSGTDFTLTISSLQPEDFATYYCLGSYACSSADCYVFGCGTKVTVLGEPEPEPEPEPEPEPDIQMTQSPSSLSASVGDRVTITCQSSESVYSNNQLSWYQQKPGQPPKLLIYDASDLASGVPSRFSGSGSGTDFTLTISSLQPEDFATYYCAGGFSSSSDTAFGGGTKLTVLG
chain 2: DIQMTQSPSSLSASVGDRVTITCQASENIYSFLAWYQQKPGKAPKLLIYSASKLAAGVPSRFSGSGSGTDFTLTISSLQPEDFATYYCQQTNRYSNPDIYNVFGTGTKVTVLGGGGGSGGGGSGGGGSGGGGSEVQLVESGGGLVQPGGSLRLSCAASGIDFNSNYYMCWVRQAPGKGLEWIGCIYVGSHVNTYYANWAKGRFTISRDNSKNTVYLQMNSLRAEDTAVYYCATSGSSVLYFKFWGQGTLVTVSSGGGGSGGGGSEVQLVESGGGLVQPGGSLRLSCAASGFSLSSNAMGWVRQAPGKGLEYIGIISVGGFTYYASWAKGRFTISRDNSKNTVYLQMNSLRAEDTATYFCARDRHGGDSSGAFYLWGQGTLVTVSSKPKPKPKPKPKPKPEVQLVESGGGLVQPGGSLRLSCAASGFSLSSYDMSWVRQAPGKCLAWIGASYASGPTYYASWAKGRFTISRDNSKNTVYLQMNSLRAEDTATYFCARGGWTGTSHSNIWGQGTLVTVSS
notes: Hetero-dimeric MATCH, anti-parallel, two anti-IL23R scFv modules on a CD3/HSA core; interchain disulfide in the anti-CD3 VL/VH interface; charged core linkers; also called MATCH-4 anti-TAA2xCD3xHSA; heterodimeric MATCH
